Values quoted from earlier work, collected in publication PMC9902533.

Target: Immunoglobulin E kappa (recombinant, clone AbD18705_hIgE, HCA190) (human) (UniProt P01854+P01834)
Settings: 10 mM HEPES pH 7.4, 0.05% Tween-20, room temperature (IgE; fibrils and exosomes same buffer); FUS: 50 mM Tris-HCl pH 7.4, 25 mM KCl, 0.02% Tween-20, on-chip …

Sequence of Immunoglobulin E kappa (recombinant, clone AbD18705_hIgE, HCA190) (human) (P01854 whole entry, chain 1 of 2, other chains not shown): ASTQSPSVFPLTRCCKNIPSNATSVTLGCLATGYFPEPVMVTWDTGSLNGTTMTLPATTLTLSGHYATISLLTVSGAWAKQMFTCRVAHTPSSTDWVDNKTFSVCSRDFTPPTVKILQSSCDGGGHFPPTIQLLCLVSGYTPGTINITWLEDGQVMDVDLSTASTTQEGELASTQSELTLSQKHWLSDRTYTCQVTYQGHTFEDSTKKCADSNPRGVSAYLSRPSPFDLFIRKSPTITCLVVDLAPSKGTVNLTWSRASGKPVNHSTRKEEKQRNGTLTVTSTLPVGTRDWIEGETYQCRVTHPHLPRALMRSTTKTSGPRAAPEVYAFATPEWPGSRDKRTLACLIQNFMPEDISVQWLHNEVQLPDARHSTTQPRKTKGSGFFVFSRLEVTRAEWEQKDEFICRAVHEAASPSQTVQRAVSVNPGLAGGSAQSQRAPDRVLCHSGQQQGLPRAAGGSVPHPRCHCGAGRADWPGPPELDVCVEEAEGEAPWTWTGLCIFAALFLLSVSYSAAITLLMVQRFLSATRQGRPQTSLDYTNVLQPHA

For “TGGGGCACGTTTATCCGTCCCTCCTAGTGGCGTGCCCC [IgE aptamer]”, the Kd is given as 50 nM.
